# Test results taken from publication PMC4227782.
# Molecular target: T1, MBNL1 (2-260) (UniProt Q9NR56)
# T1 sequence: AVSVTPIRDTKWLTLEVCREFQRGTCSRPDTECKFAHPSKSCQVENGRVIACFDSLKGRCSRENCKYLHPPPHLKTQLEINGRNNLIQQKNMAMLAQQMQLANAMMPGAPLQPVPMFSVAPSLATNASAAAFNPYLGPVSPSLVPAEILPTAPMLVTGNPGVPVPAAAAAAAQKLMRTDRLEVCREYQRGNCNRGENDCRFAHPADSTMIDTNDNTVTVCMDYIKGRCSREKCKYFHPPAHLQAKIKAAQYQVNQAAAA
# Assay: EMSA
# Conditions: 5 mM Mg2+, 0.1 mg/ml heparin, 175 mM NaCl, 20 mM Tris pH 7.5, 1 mM BME, 10% glycerol, 5 mM MgCl2, 0.1 mg/ml heparin, 2 mg/ml BSA, 0.02% xylene cyanol, 0.05% bromophenol blue, 20 min at room …
sequence,measurement,setting,value
CUGCUGCUGCUG [1Ψ(CUG)4],Kd,"1 pseudouridine replacing U, position only in Fig 1B",1000 nM
CUGCUGCUGCUG [4Ψ(CUG)4],Kd,"Kd immeasurable, 4 pseudouridines replacing U",> 5000 nM
CUGCUGCUGCUG [(CUG)4],Kd,,300 nM
CUGCUGCUGCUG [1-2'Ome(CUG)4],Kd,"1 2'-O-methyl, position only in Fig 1B",650 nM
CUGCUGCUGCUG [4-2'Ome(CUG)4],Kd,"4 2'-O-methyl, positions only in Fig 1B",1000 nM
CUGCUGCUGCUG [2Ψ(CUG)4],Kd,"2 pseudouridines replacing U, positions only in Fig 1B",6000 nM
CUGCUGCUGCUG [2-2'Ome(CUG)4],Kd,"2 2'-O-methyl, positions only in Fig 1B",890 nM
